Reference: US20100120063A1, “GPCR Arrestin Assays” (DISCOVERX CORPORATION, priority 2008, published 2010)
Like-named read-outs stand apart in the source and are kept apart here.

Key:
Experiment in all cases: cell-based or functional assay
[1] = target: OPRM1-PK (opiod receptor mu-1 fused to PK) (E. coli) (UniProt P35372); set-up: EC50, arrestin-EA recruitment to OPRM1-PK (EFC) (M (unit not given)): unit not given beside the values
OPRD1-PK fusion protein [2] = target: OPRD1-PK fusion protein; set-up: EC50, arrestin-EA recruitment to OPRD1-PK (EFC) (M (unit not given)): unit not given beside the values
PROKR2, not fused = PROKR2, not fused (UniProt Q8NFJ6); set-up: EC50, arrestin-EA recruitment to OPRM1-PK (EFC), cells headed 'OPRM1 + PRC' (M (unit not given)): unit not given beside the values
PROKR2, not fused, sequence (Q8NFJ6 whole entry, the tested form may be a part): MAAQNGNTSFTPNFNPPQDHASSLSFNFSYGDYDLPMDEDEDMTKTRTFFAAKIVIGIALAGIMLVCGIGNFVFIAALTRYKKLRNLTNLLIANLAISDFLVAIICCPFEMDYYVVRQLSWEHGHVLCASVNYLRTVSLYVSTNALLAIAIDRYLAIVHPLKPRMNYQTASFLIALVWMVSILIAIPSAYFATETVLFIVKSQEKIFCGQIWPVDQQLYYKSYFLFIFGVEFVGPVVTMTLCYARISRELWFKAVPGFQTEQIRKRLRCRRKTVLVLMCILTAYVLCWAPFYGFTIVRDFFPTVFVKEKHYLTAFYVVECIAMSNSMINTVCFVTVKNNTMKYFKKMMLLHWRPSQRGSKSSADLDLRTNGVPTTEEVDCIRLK

[3] = target: CRTH2-PK2 (G Protein-coupled receptor 44 fused to PK2) (E. coli) (UniProt Q9Y5Y4); set-up: EC50 of prostaglandin for arrestin-EA recruitment, EFC (M (unit not given)): unit not given beside the values
[4] = target: CHRM2-PK2 (cholinergic receptor, muscarinic 2, fused to PK2) (E. coli) (UniProt P08172); set-up: EC50 of oxotremorine for arrestin-EA recruitment, EFC (M (unit not given)): unit not given beside the values
[5] = target: OPRM1-PK (opiod receptor mu-1 fused to PK) (E. coli) (UniProt P35372); set-up: EC50, arrestin-EA recruitment to OPRM1-PK (EFC), cells headed 'OPRM1 + PRC' (M (unit not given)): unit not given beside the values
[6] = target: CCR4-PK1 (chemokine receptor 4 fused to PK1) (E. coli) (UniProt P51679)
[7] = target: CCR4-PK2 (chemokine receptor 4 fused to PK2) (E. coli) (UniProt P51679)
[8] = target: CHRM2-PK1 (cholinergic receptor, muscarinic 2, fused to PK1) (E. coli) (UniProt P08172)
[9] = target: CHRM2-PK2 (cholinergic receptor, muscarinic 2, fused to PK2) (E. coli) (UniProt P08172)
[10] = target: CHRM3 with the EGS linker and PK (UniProt P20309)
[11] = target: CRHR2-PK1 (corticotropin releasing hormone receptor 2 fused to PK1) (E. coli) (UniProt Q13324)
[12] = target: CRHR2-PK2 (corticotropin releasing hormone receptor 2 fused to PK2) (E. coli) (UniProt Q13324)
[13] = target: CRTH2-PK1 (G Protein-coupled receptor 44 fused to PK1) (E. coli) (UniProt Q9Y5Y4)
[14] = target: CRTH2-PK2 (G Protein-coupled receptor 44 fused to PK2) (E. coli) (UniProt Q9Y5Y4)
[15] = target: HRH3 with the EGS linker and PK (UniProt Q9Y5N1)
HRH3 with the EGS linker and PK, sequence (Q9Y5N1 other isoform, or with tags, fused parts or gaps): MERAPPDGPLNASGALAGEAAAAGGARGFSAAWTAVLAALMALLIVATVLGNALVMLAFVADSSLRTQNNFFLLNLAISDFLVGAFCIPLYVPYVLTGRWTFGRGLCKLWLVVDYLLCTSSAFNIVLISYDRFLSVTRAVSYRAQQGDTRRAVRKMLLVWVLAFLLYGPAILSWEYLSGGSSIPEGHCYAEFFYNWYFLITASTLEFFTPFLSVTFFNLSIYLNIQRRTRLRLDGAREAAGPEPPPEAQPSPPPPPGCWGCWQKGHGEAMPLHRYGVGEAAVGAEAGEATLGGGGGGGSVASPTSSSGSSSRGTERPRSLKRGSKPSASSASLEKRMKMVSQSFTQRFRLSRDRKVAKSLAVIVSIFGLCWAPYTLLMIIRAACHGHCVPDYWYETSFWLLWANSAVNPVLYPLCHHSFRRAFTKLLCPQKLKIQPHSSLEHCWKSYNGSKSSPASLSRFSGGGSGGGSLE

[16] = target: MC3R-PK1 (melanocortin 3 receptor fused to PK1) (E. coli) (UniProt P41968)
[17] = target: MC3R-PK2 (melanocortin 3 receptor fused to PK2) (E. coli) (UniProt P41968)
OPRD1-PK fusion protein [18] = target: OPRD1-PK fusion protein
[19] = target: OPRM1-PK (opiod receptor mu-1 fused to PK) (E. coli) (UniProt P35372)
[20] = target: OPRM1-PK2 (opiod receptor mu-1 fused to PK2) (E. coli) (UniProt P35372)
[21] = target: SSTR1-PK2 (somatostatin receptor 1 fused to PK2) (E. coli) (UniProt P30872)
[22] = target: SSTR4 with the EGS linker and PK (UniProt P31391)
SSTR4 with the EGS linker and PK, sequence (P31391 other isoform, or with tags, fused parts or gaps): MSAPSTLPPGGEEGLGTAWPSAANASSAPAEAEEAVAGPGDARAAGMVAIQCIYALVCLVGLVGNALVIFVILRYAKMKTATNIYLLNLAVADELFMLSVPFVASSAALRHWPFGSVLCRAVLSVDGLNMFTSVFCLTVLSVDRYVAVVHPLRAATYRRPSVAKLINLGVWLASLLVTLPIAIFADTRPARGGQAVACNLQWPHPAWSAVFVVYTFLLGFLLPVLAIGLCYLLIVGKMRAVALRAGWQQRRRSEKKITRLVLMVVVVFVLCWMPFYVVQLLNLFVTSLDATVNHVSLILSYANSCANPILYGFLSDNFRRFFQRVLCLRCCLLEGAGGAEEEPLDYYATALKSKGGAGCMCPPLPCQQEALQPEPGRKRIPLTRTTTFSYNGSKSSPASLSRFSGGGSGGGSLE

[23] = target: SSTR4-PK without the EGS linker (UniProt P31391)
SSTR4-PK without the EGS linker, sequence (P31391 other isoform, or with tags, fused parts or gaps): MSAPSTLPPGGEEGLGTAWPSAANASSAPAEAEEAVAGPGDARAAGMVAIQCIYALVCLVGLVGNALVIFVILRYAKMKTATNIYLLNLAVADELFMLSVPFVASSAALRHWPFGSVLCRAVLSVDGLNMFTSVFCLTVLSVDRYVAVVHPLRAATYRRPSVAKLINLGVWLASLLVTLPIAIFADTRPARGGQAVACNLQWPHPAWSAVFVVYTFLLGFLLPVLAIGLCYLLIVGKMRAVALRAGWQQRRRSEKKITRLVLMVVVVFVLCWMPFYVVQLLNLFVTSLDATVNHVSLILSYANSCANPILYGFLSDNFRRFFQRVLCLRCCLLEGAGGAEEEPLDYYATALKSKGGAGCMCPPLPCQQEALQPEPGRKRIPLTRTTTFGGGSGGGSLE

[24] = target: CHRM2-PK2 (cholinergic receptor, muscarinic 2, fused to PK2) (E. coli) (UniProt P08172); remark: listed apart in the source
[25] = target: SSTR1-PK2 (somatostatin receptor 1 fused to PK2) (E. coli) (UniProt P30872); remark: listed apart in the source
[26] = target: OPRD1 (opiod receptor delta 1), not fused (UniProt P41143)

DADLE (peptide)
LOGEC50, arrestin-EA recruitment to OPRM1-PK (EFC) (log M (unit not given)) [1]: -6.95

DADLE (peptide; in M (unit assumed))
EC50, arrestin-EA recruitment to OPRM1-PK (EFC) (M (unit not given)) [1]: 1.11e-07

DAMAGO, [D-Ala2,N-Me-Phe4,Gly5-ol]-enkephalin (peptide)
EC50, arrestin-EA recruitment to OPRD1-PK (EFC) (M (unit not given)) (OPRD1-PK fusion protein [2]): 3.64e-05 | LOGEC50, arrestin-EA recruitment to OPRD1-PK (EFC) (log M (unit not given)) (OPRD1-PK fusion protein [2]): -4.44

EG-VEGF (from UniProt P58294 20-105) (ligand)
EC50, arrestin-EA recruitment to OPRM1-PK (EFC), cells headed 'OPRM1 + PRC' (M (unit not given)) (PROKR2, not fused): 3.21e-08 | LOGEC50, arrestin-EA recruitment to OPRM1-PK (EFC), cells headed 'OPRM1 + PRC' (log M (unit not given)) (PROKR2, not fused): -7.49

arrestin-EA fusion protein (beta arrestin fused at its C terminus to the EA fragment of β-galactosidase) (from UniProt P49407 1-418; P00722 48-1024)
BOTTOM of the agonist dose-response fit, EFC chemiluminescence [3]: 29200 | LOGEC50 of prostaglandin for arrestin-EA recruitment, EFC (log M (unit not given)) [3]: -6.76 | TOP of the agonist dose-response fit, EFC chemiluminescence [3]: 76000 | BOTTOM of the agonist dose-response fit, EFC chemiluminescence [4]: 336 | EC50 of oxotremorine for arrestin-EA recruitment, EFC (M (unit not given)) [4]: 6.29e-05 | LOGEC50 of oxotremorine for arrestin-EA recruitment, EFC (log M (unit not given)) [4]: -5.2 | TOP of the agonist dose-response fit, EFC chemiluminescence [4]: 2040 | BOTTOM of the DADLE dose-response fit, EFC chemiluminescence, U2OS cells with OPRM1-PK [1]: 626 | S:B with DADLE, EFC chemiluminescence, U2OS cells with OPRM1-PK [1]: 32.7 | S:B with deltorphin, EFC chemiluminescence, U2OS cells with OPRM1-PK only [1]: 2.5 | TOP of the DADLE dose-response fit, EFC chemiluminescence, U2OS cells with OPRM1-PK [1]: 17100 | BOTTOM of the OPRM1-agonist dose-response fit, EFC chemiluminescence, CHO cells with OPRD1-PK (OPRD1-PK fusion protein [2]): 520 | TOP of the OPRM1-agonist dose-response fit, EFC chemiluminescence, CHO cells with OPRD1-PK (OPRD1-PK fusion protein [2]): 2810 | BOTTOM of the EG-VEGF dose-response fit, EFC chemiluminescence, cells headed 'OPRM1 + PRC' [5]: 25.8 | TOP of the EG-VEGF dose-response fit, EFC chemiluminescence, cells headed 'OPRM1 + PRC' [5]: 57.3 | S:B, EFC chemiluminescence [6]: 19 | S:B, EFC chemiluminescence [7]: 3 | S:B, EFC chemiluminescence [8]: 1.6 | S:B, EFC chemiluminescence [9]: 6.1 | BOTTOM of the agonist dose-response fit, EFC chemiluminescence [10]: 546 | EC50 of the agonist (not named) for arrestin-EA recruitment, EFC [10]: 82.2 nM | LOGEC50 of the agonist (not named) for arrestin-EA recruitment, EFC (log M (unit not given)) [10]: -7.08 | TOP of the agonist dose-response fit, EFC chemiluminescence [10]: 1550 | S:B, EFC chemiluminescence [11]: 13 | S:B, EFC chemiluminescence [12]: 17 | S:B, EFC chemiluminescence [13]: 1 | S:B, EFC chemiluminescence [14]: 2.6 | BOTTOM of the agonist dose-response fit, EFC chemiluminescence [15]: 273 | EC50 of the agonist (not named) for arrestin-EA recruitment, EFC [15]: 55.2 nM | LOGEC50 of the agonist (not named) for arrestin-EA recruitment, EFC (log M (unit not given)) [15]: -7.26 | TOP of the agonist dose-response fit, EFC chemiluminescence [15]: 935 | S:B, EFC chemiluminescence [16]: 1 | S:B, EFC chemiluminescence [17]: 3.2 | BOTTOM of the OPRM1-agonist dose-response fit, EFC chemiluminescence, CHO cells with OPRD1-PK and OPRM1 (OPRD1-PK fusion protein [18]): 20.3 | S:B, EFC chemiluminescence, CHO cells with OPRD1-PK and OPRM1 (OPRD1-PK fusion protein [18]): 31.9 | TOP of the OPRM1-agonist dose-response fit, EFC chemiluminescence, CHO cells with OPRD1-PK and OPRM1 (OPRD1-PK fusion protein [18]): 201 | BOTTOM of the OPRM1-agonist dose-response fit, EFC chemiluminescence, U2OS cells with OPRM1-PK [19]: 1010 | S:B with deltorphin, EFC chemiluminescence, U2OS cells with OPRM1-PK and OPRD1 [19]: 7.4 | S:B, EFC chemiluminescence [19]: 26 | TOP of the OPRM1-agonist dose-response fit, EFC chemiluminescence, U2OS cells with OPRM1-PK [19]: 10900 | S:B, EFC chemiluminescence [20]: 8 | BOTTOM of the agonist dose-response fit, EFC chemiluminescence [21]: 4800 | EC50 of the agonist (not named) for arrestin-EA recruitment, EFC [21]: 8.15 nM | LOGEC50 of the agonist (not named) for arrestin-EA recruitment, EFC (log M (unit not given)) [21]: -8.09 | TOP of the agonist dose-response fit, EFC chemiluminescence [21]: 10500 | BOTTOM of the agonist dose-response fit, EFC chemiluminescence [22]: 1380 | EC50 of the agonist (not named) for arrestin-EA recruitment, EFC [22]: 0.732 nM | LOGEC50 of the agonist (not named) for arrestin-EA recruitment, EFC (log M (unit not given)) [22]: -9.14 | TOP of the agonist dose-response fit, EFC chemiluminescence [22]: 3420 | response in the EFC arrestin assay, CHO cells [23]: 1.5 fold | EC50 of oxotremorine for arrestin-EA recruitment, EFC [24]: 6290 nM | BOTTOM of the agonist dose-response fit, EFC chemiluminescence [25]: 4790 | Log EC50 of the agonist (not named) for arrestin-EA recruitment, EFC (log M (unit not given)) [25]: -8.07

arrestin-EA fusion protein (beta arrestin fused at its C terminus to the EA fragment of β-galactosidase) (from UniProt P49407 1-418; P00722 48-1024) (other; in M (unit assumed))
EC50 of prostaglandin for arrestin-EA recruitment, EFC (M (unit not given)) [3]: 1.74e-07

deltorphin (peptide)
EC50, arrestin-EA recruitment to OPRM1-PK (EFC) (M (unit not given)) [1]: 0.0007 | LOGEC50, arrestin-EA recruitment to OPRM1-PK (EFC) (log M (unit not given)) [1]: -3.12 | EC50, arrestin-EA recruitment to co-expressed OPRM1-PK (EFC, transactivation) [26]: 8.38 nM | LOGEC50, arrestin-EA recruitment to co-expressed OPRM1-PK (EFC, transactivation) (log M (unit not given)) [26]: -8.08
